Experimental data reported in patent publication US8648041 (Novo Nordisk, dated 2014).
Numbered stars: 1 amine (or outer) side, 2 acyl side, 3 side chain; on linkers, the order of the positions; unused ones are H or OH. Square brackets hold non-standard residues; d marks the D form. Side chains are listed from the residue outwards. Ends that are not written are not given here. * marks the point of attachment. 9‑(4-carboxyphenoxy)nonanoyl = O=C(O)c1ccc(OCCCCCCCCC(=O)*)cc1; 8‑(4-carboxyphenoxy)octanoyl = O=C(O)c1ccc(OCCCCCCCC(=O)*)cc1; Malonyl(2,2-Me2,histaminyl) = CC(C)(C(=O)NCCc1cnc[nH]1)C(=O)*; Decanoyl(10-(4-HOOC-PhO)) = O=C(O)c1ccc(OCCCCCCCCCC(=O)*)cc1; γGlu = O=C(O)[C@H](CCC(=O)[*:2])N[*:1]; C14 diacid = O=C(O)CCCCCCCCCCCCC(=O)*; C12 diacid = O=C(O)CCCCCCCCCCC(=O)*; AEEA = NCCOCCOCC(=O)O; Aib = CC(C)(N)C(=O)O

B1: N^9-{2-[2-(1H-Imidazol-4-yl)-ethylcarbamoyl]-2-methylpropionyl}-N^ε26-{2-[2-(2-{2-[2-(2-{(S)-4-[4-(4-tert-Butylphenyl)butyrylamino]-4-carboxybutyrylamino}ethoxy … (peptide)
peptide: {Malonyl(2,2-Me2,histaminyl)}-EGTFTSDVSSYLEGQAAKEFIAWLVRGRK
modifications: not fully specified (residues 18, 29); printed as N^9-{2-[2-(1H-Imidazol-4-yl)-ethylcarbamoyl]-2-methylpropionyl}-N^ε26-{2-[2-(2-{2-[2-(2-{(S)-4-[4-(4-tert-Butylphenyl)butyrylamino]-4-carboxybutyrylamino}ethoxy)ethoxy]acetylamino}ethoxy)ethoxy]acetyl}, N^ε37-{2-[2-(2-{2-[2-(2-{(S)-4-[4-(4-tert-Butylphenyl)butyrylamino]-4-carboxybutyrylamino}ethoxy)ethoxy]acetylamino}ethoxy)ethoxy]acetyl}[Arg^34, Lys^37]GLP-1(9-37)-peptide
notes: also called Chem. 46
B2: N^ε26-[2-[2-[2-[[2-[2-[2-[[(4S)-4-carboxy-4-[10-(4-carboxyphenoxy)decanoylamino]butanoyl]amino]ethoxy]ethoxy]acetyl]amino]ethoxy]ethoxy]acetyl], … (peptide)
peptide: HAEGTFTSDVSSYLEGQAAK([AEEA-AEEA-γGlu-Decanoyl(10-(4-HOOC-PhO))])EFIAWLVRGRK([AEEA-AEEA-γGlu-Decanoyl(10-(4-HOOC-PhO))])
B3: N^ε26-[2-[2-[2-[[2-[2-[2-[[(4S)-4-carboxy-4-[10-(4-carboxyphenoxy)decanoylamino]butanoyl]amino]ethoxy]ethoxy]acetyl]amino]ethoxy]ethoxy]acetyl], … (peptide)
peptide: HAEGTFTSDVSSYLEGQAAK([AEEA-AEEA-γGlu-Decanoyl(10-(4-HOOC-PhO))])EFIEWLVRGRK([AEEA-AEEA-γGlu-Decanoyl(10-(4-HOOC-PhO))])
B4: N^ε26-[2-[2-[2-[[2-[2-[2-[[(4S)-4-carboxy-4-(13-carboxytridecanoylamino)butanoyl]amino]ethoxy]ethoxy]acetyl]amino]ethoxy]ethoxy]acetyl], … (peptide)
peptide: HAEGTFTSDVSSYLEGQAAK([AEEA-AEEA-γGlu-C14 diacid])EFIAHLVQGRK([AEEA-AEEA-γGlu-C14 diacid])
notes: also called Chem. 53
B5: N^ε26-[(4S)-4-carboxy-4-[[2-[2-[2-[[2-[2-[2-[10-(4-carboxyphenoxy)decanoylamino]ethoxy]ethoxy]acetyl]amino]ethoxy]ethoxy]acetyl]amino]butanoyl], … (peptide)
peptide: HAEGTFTSDVSSYLEGQAAK([γGlu-AEEA-AEEA-Decanoyl(10-(4-HOOC-PhO))])EFIAHLVQGRK([γGlu-AEEA-AEEA-Decanoyl(10-(4-HOOC-PhO))])
notes: also called Chem. 55
B6: N^ε26-[2-[2-[2-[[2-[2-[2-[[(4S)-4-carboxy-4-(11-carboxyundecanoylamino)butanoyl]amino]ethoxy]ethoxy]acetyl]amino]ethoxy]ethoxy]acetyl], … (peptide)
peptide: HAEGTFTSDVSSYLEGQAAK([AEEA-AEEA-γGlu-C12 diacid])EFIAHLVQGRK([AEEA-AEEA-γGlu-C12 diacid])
notes: also called Chem. 54
B7: N^ε26-[2-[2-[2-[[2-[2-[2-[[(4S)-4-carboxy-4-[10-(4-carboxyphenoxy)decanoylamino]butanoyl]amino]ethoxy]ethoxy]acetyl]amino]ethoxy]ethoxy]acetyl], … (peptide)
peptide: HAEGTFTSDVSSYLEGQAAK([AEEA-AEEA-γGlu-Decanoyl(10-(4-HOOC-PhO))])EFIAHLVQGRK([AEEA-AEEA-γGlu-Decanoyl(10-(4-HOOC-PhO))])
notes: also called Chem. 52
B8: N^ε26-[2-[2-[2-[[2-[2-[2-[[(4S)-4-carboxy-4-[10-(4-carboxyphenoxy)decanoylamino]butanoyl]amino]ethoxy]ethoxy]acetyl]amino]ethoxy]ethoxy]acetyl], … (peptide)
peptide: HAEGTFTSDVSSYLEGQAAK([AEEA-AEEA-γGlu-Decanoyl(10-(4-HOOC-PhO))])EFIAWLVRGGK([AEEA-AEEA-γGlu-Decanoyl(10-(4-HOOC-PhO))])
B9: N^ε26-[2-[2-[2-[[2-[2-[2-[[(4S)-4-carboxy-4-[10-(4-carboxyphenoxy)decanoylamino]butanoyl]amino]ethoxy]ethoxy]acetyl]amino]ethoxy]ethoxy]acetyl], … (peptide)
peptide: HAQGTFTSDVSSYLEGQAAK([AEEA-AEEA-γGlu-Decanoyl(10-(4-HOOC-PhO))])EFIAWLVRGRK([AEEA-AEEA-γGlu-Decanoyl(10-(4-HOOC-PhO))])
B10: N^ε26-[2-[2-[2-[[2-[2-[2-[[(4S)-4-carboxy-4-[8-(4-carboxyphenoxy)octanoylamino]butanoyl]amino]ethoxy]ethoxy]acetyl]amino]ethoxy]ethoxy]acetyl], … (peptide)
peptide: HAEGTFTSDVSSYLEGQAAK([AEEA-AEEA-γGlu-8‑(4-carboxyphenoxy)octanoyl])EFIAWLVRGGK([AEEA-AEEA-γGlu-8‑(4-carboxyphenoxy)octanoyl])
B11: N{9}-[2,2-dimethyl-3-oxo-3-(pyridin-2-ylmethylamino)propanoyl], … (peptide)
peptide: {2,2‑dimethyl‑3‑oxo‑3‑(pyridin-2-ylmethylamino)propanoyl}-EGTFTSDVSSYLEGQAAK([AEEA-AEEA-γGlu-Decanoyl(10-(4-HOOC-PhO))])EFIAWLVRGRK([AEEA-AEEA-γGlu-Decanoyl(10-(4-HOOC-PhO))])
notes: also called Chem. 60
B12: N^ε26-[2-[2-[2-[[2-[2-[2-[[(4S)-4-carboxy-4-[10-(4-carboxyphenoxy)decanoylamino]butanoyl]amino]ethoxy]ethoxy]acetyl]amino]ethoxy]ethoxy]acetyl], … (peptide)
peptide: HAEGTFTSDVSSYLEGQAAK([AEEA-AEEA-γGlu-Decanoyl(10-(4-HOOC-PhO))])EFIAWLVRGRK([AEEA-AEEA-γGlu-Decanoyl(10-(4-HOOC-PhO))])G
notes: the added Gly38 is therefore written as a second piece
B13: N^ε26-[2-[2-[2-[[2-[2-[2-[[(4S)-4-carboxy-4-[10-(4-carboxyphenoxy)decanoylamino]butanoyl]amino]ethoxy]ethoxy]acetyl]amino]ethoxy]ethoxy]acetyl], … (peptide)
peptide: HAEGTFTSDVSSYLEGQAAK([AEEA-AEEA-γGlu-Decanoyl(10-(4-HOOC-PhO))])EFIAWLVRGRK([AEEA-AEEA-γGlu-Decanoyl(10-(4-HOOC-PhO))])E
notes: also called Chem. 65
B14: N^ε26-[2-[2-[2-[[2-[2-[2-[[(4S)-4-carboxy-4-[8-(4-carboxyphenoxy)octanoylamino]butanoyl]amino]ethoxy]ethoxy]acetyl]amino]ethoxy]ethoxy]acetyl], … (peptide)
peptide: HAEGTFTSDVSSYLEGQAAK([AEEA-AEEA-γGlu-8‑(4-carboxyphenoxy)octanoyl])EFIAWLVRGRK([AEEA-AEEA-γGlu-8‑(4-carboxyphenoxy)octanoyl])
B15: N^9-{2-[2-(1H-Imidazol-4-yl)ethylcarbamoyl]-2-methylpropionyl}-N^ε26-{2-[2-(2-{2-[2-(2-{(S)-4-Carboxy-4-[10-(4-carboxyphenoxy)decanoylamino]butyrylamino}ethoxy) … (peptide)
peptide: {Malonyl(2,2-Me2,histaminyl)}-EGTFTSDVSSYLEGQAAK([AEEA-AEEA-γGlu-Decanoyl(10-(4-HOOC-PhO))])EFIAWLVRGRK([AEEA-AEEA-γGlu-Decanoyl(10-(4-HOOC-PhO))])
notes: also called Chem. 42
B16: N^9-{2-[2-(1H-Imidazol-4-yl)ethylcarbamoyl]-2-methylpropionyl}, … (peptide)
peptide: {Malonyl(2,2-Me2,histaminyl)}-EGTFTSDVSSYLEGQAAK([AEEA-AEEA-γGlu-Decanoyl(10-(4-HOOC-PhO))])EFIAWLVRGRK([AEEA-AEEA-γGlu-Decanoyl(10-(4-HOOC-PhO))])E
notes: also called Chem. 41
B17: N^ε26-[2-[2-[2-[[2-[2-[2-[[(4S)-4-carboxy-4-[10-(4-carboxyphenoxy) decanoylamino]butanoyl]amino]ethoxy]ethoxy]acetyl]amino]ethoxy]ethoxy]acetyl], … (peptide)
peptide: XAEGTFTSDVSSYLEGQAAKEFIAWLVRGRK
modifications: Imp (imidazopropionic acid, des-amino histidine) at 7; Lys26 and Lys37 each acylated at the epsilon-amino group with 10-(4-carboxyphenoxy)decanoyl-gammaGlu-OEG-OEG (GLP-1(7-37) numbering)
B18: N^ε26-[2-[2-[2-[[2-[2-[2-[[(4S)-4-carboxy-4-[9-(4-carboxyphenoxy)nonanoylamino]butanoyl]amino]ethoxy]ethoxy]acetyl]amino]ethoxy]ethoxy]acetyl], … (peptide)
peptide: HAEGTFTSDVSSYLEGQAAK([AEEA-AEEA-γGlu-9‑(4-carboxyphenoxy)nonanoyl])EFIAWLVRGRK([AEEA-AEEA-γGlu-9‑(4-carboxyphenoxy)nonanoyl])
B19: N^ε26-[(4S)-4-carboxy-4-[[2-[2-[2-[[2-[2-[2-(13-carboxytridecanoylamino)ethoxy]ethoxy]acetyl]amino]ethoxy]ethoxy]acetyl]amino]butanoyl], … (peptide)
peptide: HAEGTFTSDVSSYLEGQAAK([γGlu-AEEA-AEEA-C14 diacid])EFIAWLVRGRK([γGlu-AEEA-AEEA-C14 diacid])
B20: N^ε26-[2-[2-[2-[[2-[2-[2-[[(4S)-4-carboxy-4-(13-carboxytridecanoylamino)butanoyl]amino]ethoxy]ethoxy]acetyl]amino]ethoxy]ethoxy]acetyl], … (peptide)
peptide: HAEGTFTSDVSSYLEGQAAK([AEEA-AEEA-γGlu-C14 diacid])EFIAWLVRGRK([AEEA-AEEA-γGlu-C14 diacid])
B21: N^ε26-[2-(2-[2-(2-[2-(2-[4-(10-(4-Carboxyphenoxy)decanoylamino)-4(S)-carboxybutyrylamino]ethoxy)ethoxy]acetylamino)ethoxy]ethoxy)acetyl]-N^ε37-[2-(2-[2-(2-[2-(2 … (peptide)
peptide: HXEGTFTSDVSSYLEGQAAKEFIAHLVQGRK
modifications: Aib at 8; Lys26 and Lys37 each acylated at the epsilon-amino group with 10-(4-carboxyphenoxy)decanoyl-gammaGlu-OEG-OEG (GLP-1(7-37) numbering, His = 7)
notes: also called Chem. 36
B22: N^ε26-[2-(2-{2-[2-(2-{2-[(S)-4-Carboxy-4-(11-carboxyundecanoylamino)butyrylamino]ethoxy}ethoxy)acetylamino]ethoxy}ethoxy)acetyl], … (peptide)
peptide: B21 peptide
modifications: Aib at 8; Lys26 and Lys37 each acylated at the epsilon-amino group with 11-carboxyundecanoyl-gammaGlu-OEG-OEG (GLP-1(7-37) numbering, His = 7)
notes: also called Chem. 40
B23: N^ε26-[2-[2-[2-[[2-[2-[2-[[(4S)-4-carboxy-4-[10-(4-carboxyphenoxy)decanoylamino]butanoyl]amino]ethoxy]ethoxy]acetyl]amino]ethoxy]ethoxy]acetyl], … (peptide)
peptide: H[Aib]EGTFTSDVSSYLEGRAAK([AEEA-AEEA-γGlu-Decanoyl(10-(4-HOOC-PhO))])EFIAWLVRGRK([AEEA-AEEA-γGlu-Decanoyl(10-(4-HOOC-PhO))])
B24: N^ε26-[2-[2-[2-[[2-[2-[2-[[(4S)-4-carboxy-4-[10-(4-carboxyphenoxy)decanoylamino]butanoyl]amino]ethoxy]ethoxy]acetyl]amino]ethoxy]ethoxy]acetyl], … (peptide)
peptide: H[Aib]GGTFTSDVSSYLEGQAAK([AEEA-AEEA-γGlu-Decanoyl(10-(4-HOOC-PhO))])EFIAWLVRGRK([AEEA-AEEA-γGlu-Decanoyl(10-(4-HOOC-PhO))])

target: T1, human GLP-1 receptor (human, UniProt P43220 24-463); experiment: SPA, displacement of 125I-GLP-1(7-36)NH2 from membranes with human GLP-1 receptor, 2.0% HSA
T1 construct: whole, on cells; Used as membrane preparations of the transfected hamster (BHK) cell line, not as whole cells; also called hGLP-1/BHK 467-12A membranes
From the text: (§1) A shift in the binding affinity, $IC50$, is an indication that the peptide in question binds to albumin, and thereby a prediction of a potential protracted pharmacokinetic profile of the peptide in question in animal models. Conditions Species (in vitro): Hamster Biological End Point: Receptor Binding Assay Method: SPA Receptor: GLP-1 receptor Cell Line: BHK tk-ts13 Cell Culture and Membrane Purification A stable transfected cell line and a high expressing clone were selected for screening. The cells were grown at 5% CO_2 in DMEM, 10% FCS, 1% Pen/Strep (Penicillin/Streptomycin) and 1.0 mg/ml of the selection marker G418.
(§2) 25 ul (micro liter) of test compounds were added to Optiplate. HSA ("high albumin" experiment containing 2% HSA), or buffer ("low albumin" experiment containing 0.005% HSA), was added (50 ul). 5-10 ug protein/sample was added (50 ul) corresponding to 0.1-0.2 mg protein/ml (to be preferably optimised for each membrane preparation). SPA-particles (Wheatgerm agglutinin SPA beads, Perkin Elmer, #RPNQ0001) were added in an amount of 0.5 mg/well (50 ul). […] The plates were sealed with PlateSealer and incubated for 120 minutes at 30° C. while shaking. The plates were centrifuged (1500 rpm, 10 min) and counted in Topcounter. Assay Buffer: 50 mM HEPES 5 mM EGTA 5 mM MgCl2 0.005% Tween™ 20 pH 7.4 HSA was SIGMA A1653.

IC50 | Binder
≤ 1000 nM | B1
≤ 1000 nM | B2
≤ 1000 nM | B3
≤ 1000 nM | B4
≤ 1000 nM | B5
≤ 1000 nM | B6
≤ 1000 nM | B7
≤ 1000 nM | B8
≤ 1000 nM | B9
≤ 1000 nM | B10
≤ 1000 nM | B11
≤ 1000 nM | B12
≤ 1000 nM | B13
≤ 1000 nM | B14
≤ 1000 nM | B15
≤ 1000 nM | B16
≤ 1000 nM | B17
≤ 1000 nM | B18
≤ 1000 nM | B19
≤ 1000 nM | B20
≤ 1000 nM | B21
≤ 1000 nM | B22
≤ 1000 nM | B23
≤ 1000 nM | B24

target: T1, human GLP-1 receptor; experiment: SPA, displacement of 125I-GLP-1(7-36)NH2 from membranes with human GLP-1 receptor, 0.005% HSA
From the text: as §1, §2

IC50 | Binder
< 600 nM | B1
< 600 nM | B2
< 600 nM | B3
< 600 nM | B4
< 600 nM | B5
< 600 nM | B6
< 600 nM | B7
< 600 nM | B8
< 600 nM | B9
< 600 nM | B10
< 600 nM | B11
< 600 nM | B12
< 600 nM | B13
< 600 nM | B14
< 600 nM | B15
< 600 nM | B16
< 600 nM | B17
< 600 nM | B18
< 600 nM | B19
< 600 nM | B20
< 600 nM | B21
< 600 nM | B22
< 600 nM | B23
< 600 nM | B24
